The numbers were not newly measured in US7776891B2, “VLA-4 antagonists” (Merck Sharp & Dohme Corp., priority 2004, dated 2010), which cites them from elsewhere.

For the data set, the target named is T1, VLA-4 (Homo sapiens, UniProt P13612).
T1 construct: host or cells: circulating VLA-4-bearing leukocytes of trial subjects (endogenous)
The conditions noted are these: early clinical trials.

A value given as a limit tells only on which side of the number the result lay.

“natalizumab: humanized monoclonal antibody against α4 (Antegren®, Elan/Biogen)”: the “lymphocytosis (a surrogate marker for blockade of VLA-4 function)” value is on record as “observed” and the receptor occupancy is greater than 80%.
